Where no end group is shown, it is not given here. [ ]: non-standard residue; d: D form. FAM = FAM fluorescent label on the peptide N-terminus (the text does not expand the abbreviation); pS = N[C@@H](COP(=O)(O)O)C(=O)O
B1: 1×S5P CTD diheptapeptide (peptide)
peptide: {Atto‑488}-YSPT[pS]PSYSPTSPS
notes: also called 1×S5P CTD peptide; CTD pS5; source: lyophilized peptide, labeled with Atto-488 NHS ester, purified by reverse-phase HPLC
B2: WTAP peptide (first 19 N-terminal amino acids) phosphorylated at S14 (peptide, UniProt Q15007 1-19, looked up)
peptide: MTNEEPLPKKVRL[pS]ETDFK
notes: first 19 N-terminal amino acids of WTAP, with the LSETD motif; also called WTAP pS14

Legend:
[1] = biological target: T1, SHARP SPOC (3496–3664 aa) (human, UniProt Q96T58 3496-3664); assay: fluorescence polarisation; fluorescence anisotropy; 90 nM labelled peptide (Atto-488 on CTD peptides, FAM on NCoR and FMR1 peptides) titrated with increasing concentrations of SPOC domain; 20 °C; 25 mM Tris-Cl pH 7.4, 25 mM NaCl, 1 mM DTT; three independent dilution series; details: both partners purified
T1 construct: SPOC domain of human SHARP (SMRT/HDAC1 associated repressor protein, also known as SPEN), residues 3496-3664; also called SPOC domain of SHARP; SPEN SPOC; not shown: His6, N-terminal, cleaved

RBM15 SPOC R834A = biological target: T2, RBM15 SPOC R834A (human, UniProt Q96T37 775-960, R834A); assay: as above; details: both partners purified
T2 construct: SPOC domain of human RBM15, residues 775-960, with R834A; not shown: His6, N-terminal, cleaved
T2 sequence (looked up): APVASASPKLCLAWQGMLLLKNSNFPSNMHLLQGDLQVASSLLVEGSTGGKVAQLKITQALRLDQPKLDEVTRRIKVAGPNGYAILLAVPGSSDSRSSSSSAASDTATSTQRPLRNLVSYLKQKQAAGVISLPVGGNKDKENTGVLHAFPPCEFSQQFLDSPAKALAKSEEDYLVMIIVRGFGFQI

| Binder | Kd [1] | Kd (RBM15 SPOC R834A) |
| --- | --- | --- |
| B1 | 23.8 ± 0.8 µM | – |
| {FAM}-REPAPLLSAQYETL[pS]DSDD (also: phosphoserine at S2436) [NCoR peptide phosphorylated at S2436] | 1.75 ± 0.04 µM | – |
| {FAM}-REPAPLLSAQYETLSDSDD [unphosphorylated NCoR peptide] | 13.6 ± 1.3 µM | – |
| B2 | – | 50.4 ± 1.1 µM |
